Measurements from US11571484B2, “Compositions that target tumor-associated macrophages and methods of use therefor” (Sanford Burnham Prebys Medical Discovery Institute, priority 2017, dated 2023).
Ends that are not written are not given here. FAM = 5(6)-carboxyfluorescein; Ahx = NCCCCCC(=O)O

Target: T1, recombinant human macrophage mannose receptor rhMMR/CD206 (Homo sapiens, UniProt P22897)
T1 construct: purchased R&D Systems 2534-MR-050
T1 sequence (P22897 19-1456): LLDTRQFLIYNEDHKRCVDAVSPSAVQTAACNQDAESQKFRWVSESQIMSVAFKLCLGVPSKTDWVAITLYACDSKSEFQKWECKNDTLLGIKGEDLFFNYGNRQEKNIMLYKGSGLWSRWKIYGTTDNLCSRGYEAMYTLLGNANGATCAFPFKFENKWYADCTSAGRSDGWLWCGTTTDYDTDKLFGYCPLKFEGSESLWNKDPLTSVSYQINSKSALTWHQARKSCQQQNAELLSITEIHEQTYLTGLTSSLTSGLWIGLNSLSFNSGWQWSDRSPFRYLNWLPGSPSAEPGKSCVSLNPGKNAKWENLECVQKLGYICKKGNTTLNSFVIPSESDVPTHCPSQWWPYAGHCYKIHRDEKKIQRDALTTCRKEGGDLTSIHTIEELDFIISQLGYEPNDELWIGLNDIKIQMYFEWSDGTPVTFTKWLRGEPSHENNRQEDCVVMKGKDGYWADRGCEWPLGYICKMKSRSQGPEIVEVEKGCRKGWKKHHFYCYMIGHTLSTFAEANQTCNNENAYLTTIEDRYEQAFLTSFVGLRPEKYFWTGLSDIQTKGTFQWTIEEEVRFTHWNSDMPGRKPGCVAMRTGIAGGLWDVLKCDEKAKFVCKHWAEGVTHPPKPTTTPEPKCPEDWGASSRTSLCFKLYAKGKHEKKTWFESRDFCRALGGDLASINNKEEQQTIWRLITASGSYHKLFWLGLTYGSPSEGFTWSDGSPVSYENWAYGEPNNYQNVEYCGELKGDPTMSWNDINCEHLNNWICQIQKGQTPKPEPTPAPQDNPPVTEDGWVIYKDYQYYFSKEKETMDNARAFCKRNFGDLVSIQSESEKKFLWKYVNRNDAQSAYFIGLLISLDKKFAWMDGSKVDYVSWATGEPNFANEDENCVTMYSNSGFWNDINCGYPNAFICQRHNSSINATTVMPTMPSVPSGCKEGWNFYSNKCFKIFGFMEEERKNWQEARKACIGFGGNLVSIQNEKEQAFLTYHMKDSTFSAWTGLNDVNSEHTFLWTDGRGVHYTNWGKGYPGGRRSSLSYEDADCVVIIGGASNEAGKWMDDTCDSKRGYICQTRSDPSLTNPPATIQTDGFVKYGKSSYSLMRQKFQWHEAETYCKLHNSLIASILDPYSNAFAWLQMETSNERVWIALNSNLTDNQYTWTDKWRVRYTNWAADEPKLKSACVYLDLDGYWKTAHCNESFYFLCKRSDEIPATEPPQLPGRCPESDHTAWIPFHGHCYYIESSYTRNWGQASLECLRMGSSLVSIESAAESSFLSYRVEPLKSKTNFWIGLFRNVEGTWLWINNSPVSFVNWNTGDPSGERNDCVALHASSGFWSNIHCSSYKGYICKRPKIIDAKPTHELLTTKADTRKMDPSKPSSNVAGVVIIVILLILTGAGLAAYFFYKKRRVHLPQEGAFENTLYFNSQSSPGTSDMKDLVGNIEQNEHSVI
Test: Fluorescence anisotropy assay with human recombinant CD206
Format: binding
Conditions: 100 nM FAM peptide, 0.4 μM protein
Protocol: Time course of fluorescence anisotropy of FAM-mUNO during incubation with human recombinant CD206 (black curve, 3001) or with CD163 (red curve, 3003). The concentration of FAM-mUNO was 100 nM and the concentration of CD206 and CD163 was […]. The anisotropy for the FAM-mUNO alone is shown in the green curve 3004.
Fluorescence anisotropy was also carried out using recombinant human macrophage mannose receptor rhMMR/CD206 to determine whether UNO peptide interactions with mouse CD206 carried over to human CD206. […]
In all experiments, FA signal measurements were done under pseudo first-order conditions with 50 nM singly labelled FAM peptides and 1 μM proteins. […] Assays were carried out in kinetic mode in a total volume of 30 μl at 25° C. on the PHERAstar (BMG Labtech, Germany) microplate reader using an optical module with excitation and emission filters of 485 nm (slit 10 nm) and 520 nm (slit 10 nm), respectively. […] The background fluorescence (receptor and buffer components in the absence of fluorescent ligand) was subtracted independently from all intensity channels. FA signals at time t after initiation of binding reaction was calculated as parameters r(t) from the equation: […]

In the case of “FAM-UNO: FAM-labeled UNO peptide CSPGAKVRC (SEQ ID NO: 1); 5(6)-carboxyfluorescein with 6-aminohexanoic acid spacer at the N-terminus ({FAM-Ahx}-CSPGAKVRC; cysteine pairing not given here)”, the “change in fluorescence anisotropy (interaction) with human recombinant CD206” value is reported as “did not cause a change in the fluorescence anisotropy”.
